Assay results as given in patent US5912325A, “Biologically active porcine somatotropin polypeptides and methods of using the same” (American Cyanamid Company, priority 1994, dated 1999).

Test system: hypox rats
Assay: Biological assay for growth-promoting activity: net weight gain of hypophysectomized rats
Format: in vivo, rat
Settings: 5 ug/day pST alone, day 0 to 4 and day 7 to 10, versus untreated rats, FIG. 4
Experimental: Hypox rats are injected subcutaneously with pST (5 ug/day) with or without antibody (2 mg/day) for 5 consecutive days and the net weight gain is recorded. Immune antibodies are prepared from two pigs that had been immunized with pST (54-95) and the control antibody is prepared from a pooled sera of non-immunized pigs. *,p<0.05; **,p<0.01.
In a study similar to that shown in FIG. 3, except antibody is injected at a dose of 0.5 mg/day and for a longer period of time. *,p<0.05; **,p<0.01; ***,p<0.001.
Hypophysectomized female Sprague-Dawley rats, 21 days of age and weighing 50-64 g, are obtained from Taconic Farm, Germantown, N.Y. and used to assay for Growth Hormone (GH). Female crossbred swine (Duroc x Yorkshire x Hampshire), 3-5 months of age, weighing 30-50 kg, are obtained from the breeding colony of American Cyanamid Co., Princeton, N.J. and used for the production of antibodies.
Hypophysectomized rats are randomly allocated to groups of eight. Antibody mixed with 5 ug pST at room temperature for 1 hour is administered subcutaneously in the neck region of experimental rats. All animals are treated daily for various periods of time and their growth is recorded as net weight gain. […]
The growth enhancing effect of these antibodies are evaluated in hypox rats. […] Net weight gains are recorded. […]

B1: pST: single chain polypeptide of 191 amino acids, growth hormone native to swine (protein, UniProt P01248 27-216, looked up)
Somatotropin: FPAMPLSSLFANAVLRAQHLHQLAADTYKEFERAYIPEGQRYSIQNAQAAFCFSETIPAPTGKDEAQQRSDVELLRFSLLLIQSWLGPVQFLSRVFTNSLVFGTSDRVYEKLKDLEEGIQALMRELEDGSPRAGQILKQTYDKFDTNLRSDDALLKNYGLLSCFKKDLHKAETYLRVMKCRRFVESSCAF
growth (net weight gain): marked growth as compared to untreated rats
